Target: SARS-CoV-2 receptor binding domain (RBD), Wuhan-1 (SARS-CoV-2 Wuhan-Hu-1) (UniProt P0DTC2)

## CC6.33 IgG (antibody)
  neutralization IC50 against pseudotyped SARS-CoV-2 (Hela-hACE2 cells): 228 ng/mL

Reference: publication doi:10.1101/2022.01.06.475303
